According to patent publication US20230099801A1, “RESTORATION OF T CELL ACTIVITY VIA THE CD39/CD73 AXIS” (INNATE PHARMA, priority 2017, published 2023):

Legend:
[1] = target: T1, CD39 expressed by Ramos human lymphoma cells (Homo sapiens, UniProt P49961); test: Inhibition of cellular CD39 ATPase activity in Ramos cells; type: cell-based
T1 construct: host or cells: Ramos human lymphoma cells
T1 sequence (P49961 1-510): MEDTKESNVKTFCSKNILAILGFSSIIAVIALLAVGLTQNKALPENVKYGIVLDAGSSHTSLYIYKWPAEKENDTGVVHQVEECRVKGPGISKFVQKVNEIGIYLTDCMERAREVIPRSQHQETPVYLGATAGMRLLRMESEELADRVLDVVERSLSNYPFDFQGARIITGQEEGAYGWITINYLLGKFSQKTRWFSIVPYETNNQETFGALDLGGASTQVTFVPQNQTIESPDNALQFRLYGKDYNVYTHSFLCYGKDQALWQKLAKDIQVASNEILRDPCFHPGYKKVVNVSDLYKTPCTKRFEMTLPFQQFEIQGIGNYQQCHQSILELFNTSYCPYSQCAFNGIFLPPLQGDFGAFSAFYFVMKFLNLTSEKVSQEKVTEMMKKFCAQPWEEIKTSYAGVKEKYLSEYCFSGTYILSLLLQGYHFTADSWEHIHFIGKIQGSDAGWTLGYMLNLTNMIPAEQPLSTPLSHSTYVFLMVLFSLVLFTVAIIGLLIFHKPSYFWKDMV
Experimental: The inhibition of the CD39 enzymatic activity in CD39-expressing cells by antibodies was evaluated using Cell Titer Glo™ (Promega, reference G7571) that allows assessment of ATP hydrolysis through use of a reagent that generates a luminescent signal proportional to the amount of ATP present. The assay was thus designed to permit assessment of the inhibition of ATP hydrolyzed by CD39 in the cell culture supernatant. Briefly, 5×10^4 Ramos human lymphoma cells, 5×10^3 human CD39-, cynomolgus CD39—and mouse CD39-expressing CHO cells, were incubated 1 hour at 37° C. with anti-CD39 antibodies from 30 μg/ml to 5×10^−4 μg/ml. Cells were then incubated with 20 μM ATP for 1 additional hour at 37° C. Plates were centrifuged for 2 min at 400 g and 50 μl cell supernatant are transferred in a luminescence microplate (white wells). 50 μl CellTiter-Glo® Reagent (CTG) was added to the supernatant and emitted light was quantified after a 5 min incubation in the dark using a Enspire™ luminometer. Anti-CD39 antibody efficacy was determined by comparing emitted light in presence of antibody with ATP alone (maximal light emission) and ATP together with cells (minimal light emission).

[2] = target: T2, Human CD39-L4 (NTPDase5, ENTPD5) (Homo sapiens, UniProt O75356); test: ELISA titration on CD39-L4; type: binding
T2 sequence (O75356 25-428): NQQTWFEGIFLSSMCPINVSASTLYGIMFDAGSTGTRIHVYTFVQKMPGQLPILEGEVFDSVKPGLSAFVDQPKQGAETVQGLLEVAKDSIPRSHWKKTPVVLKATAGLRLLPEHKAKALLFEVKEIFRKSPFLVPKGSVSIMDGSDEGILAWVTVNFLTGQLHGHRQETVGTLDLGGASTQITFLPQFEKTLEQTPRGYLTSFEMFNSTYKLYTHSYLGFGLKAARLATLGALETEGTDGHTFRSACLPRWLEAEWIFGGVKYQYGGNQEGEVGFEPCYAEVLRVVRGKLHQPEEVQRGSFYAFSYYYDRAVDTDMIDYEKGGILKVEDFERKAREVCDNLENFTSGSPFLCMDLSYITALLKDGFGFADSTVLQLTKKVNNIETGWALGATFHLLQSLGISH
Experimental: Wells were washed in TBS Tween 20, and further saturated 2H at RT in TBS Blocking buffer. Dose range concentration of primary antibody was incubated in TBS blocking buffer for 2h at RT. Wells were washed in TBS Tween 20. […] Optical density was measured on Enspire™ at OD=450.

B1: I-394: anti-CD39 antibody, VH SEQ ID NO: 6, VL SEQ ID NO: 7; heavy/light chains SEQ ID NOS: 52 and 53 (antibody)
heavy: EVQLQQSGPELVKPGASVKMSCKASGYTFTDYNMHWVKQSHGRTLEWIGYIVPLNGGSTFNQKFKGRATLTVNTSSRTAYMELRSLTSEDSAAYYCARGGTRFAYWGQGTLVTVSAASTKGPSVFPLAPSSKSTSGGTAALGCLVKDYFPEPVTVSWNSGALTSGVHTFPAVLQSSGLYSLSSVVTVPSSSLGTQTYICNVNHKPSNTKVDKRVEPKSCDKTHTCPPCPAPEAEGAPSVFLFPPKPKDTLMISRTPEVTCVVVDVSHEDPEVKFNWYVDGVEVHNAKTKPREEQYNSTYRVVSVLTVLHQDWLNGKEYKCKVSNKALPSSIEKTISKAKGQPREPQVYTLPPSREEMTKNQVSLTCLVKGFYPSDIAVEWESNGQPENNYKTTPPVLDSDGSFFLYSKLTVDKSRWQQGNVFSCSVMHEALHNHYTQKSLSLSPGK
light: DIVLTQSPASLAVSLGQRATISCRASESVDNFGVSFMYWFQQKPGQPPNLLIYGASNQGSGVPARFRGSGSGTDFSLNIHPMEADDTAMYFCQQTKEVPYTFGGGTKLEIKRTVAAPSVFIFPPSDEQLKSGTASVVCLLNNFYPREAKVQWKVDNALQSGNSQESVTEQDSKDSTYSLSSTLTLSKADYEKHKVYACEVTHQGLSSPVTKSFNRGEC
modifications: Chimeric homo sapiens mus musculus
[1]
  blocking CD39 enzymatic activity in tumor (Ramos) cells: highly potent
  potency in Ramos cells compared to all other antibodies tested: greater potency
[1]; Ramos cells
  maximum inhibition achieved, cellular CD39: 81.6%
[2]
  binding to CD39-L4 in ELISA: not to any of the human isoforms
